Tests used:
[1] = target: the molecule itself; assay: SEC; Superdex 200HR 10/300GL, protein concentration raised above 0.2 up to 4 mg/ml, buffer A, equilibrated 2 h at 4°C, run at 16°C; tetramer to dimers
[2] = target: the molecule itself; assay: SEC; Superdex 200HR 10/300GL, protein at 0.2 mg/ml, buffer A (20 mM sodium phosphate, 100 mM NaCl, 1 mM DTT, 1 mM EDTA, pH 7.2), equilibrated 2 h at 4°C, run at 16°C; dimer
[3] = target: the molecule itself; assay: SEC; βA3-crystallin alone, run beside the mixtures of Figure 5A; concentration not given

Protein | stoichiometry N [1] | stoichiometry N [2] | stoichiometry N [3]
wild type (WT) human βB2-crystallin (natural protein, UniProt P43320 1-205, looked up, Cloned BamHI/HindIII into pET28a; Oligomeric state depends on concentration (dimer at 0.2 mg/ml, dimer and tetramer at higher concentrations); also called WT βB2-crystallin; BB2; source: E. coli Rosetta (DE3), pET28a, purified (Ni-NTA, Superdex 200)) MASDHQTQAGKPQSLNPKIIIFEQENFQGHSHELNGPCPNLKETGVEKAGSVLVQAGPWVGYEQANCKGEQFVFEKGEYPRWDSWTSSRRTDSLSSLRPIKVDSQEHKIILYENPNFTGKKMEIIDDDVPSFHAHGYQEKVSSVRVQSGTWVGYQYPGYRGLQYLLEKGDYKDSSDFGAPHPQVQSVRRIRDMQWHQRGAFHPSN | 4 | 2 | 
A2V mutated βB2-crystallin (natural protein, human, UniProt P43320 1-205, looked up, human βB2-crystallin with the congenital cataract-linked A2V mutation, made by site-directed mutagenesis with primers from the start codon to the stop codon; Same vector and tag as m1; also called A2V mutant; source: E. coli Rosetta (DE3), pET28a, purified (Ni-NTA, Superdex 200)) MVSDHQTQAGKPQSLNPKIIIFEQENFQGHSHELNGPCPNLKETGVEKAGSVLVQAGPWVGYEQANCKGEQFVFEKGEYPRWDSWTSSRRTDSLSSLRPIKVDSQEHKIILYENPNFTGKKMEIIDDDVPSFHAHGYQEKVSSVRVQSGTWVGYQYPGYRGLQYLLEKGDYKDSSDFGAPHPQVQSVRRIRDMQWHQRGAFHPSN | 4 | 2 | 
βA3-crystallin (natural protein, UniProt P05813 1-215, looked up, βA3-crystallin; also called BA3/BA1) METQAEQQELETLPTTKMAQTNPTPGSLGPWKITIYDQENFQGKRMEFTSSCPNVSERSFDNVRSLKVESGAWIGYEHTSFCGQQFILERGEYPRWDAWSGSNAYHIERLMSFRPICSANHKESKMTIFEKENFIGRQWEISDDYPSLQAMGWFNNEVGSMKIQSGAWVCYQYPGYRGYQYILECDHHGGDYKHWREWGSHAQTSQIQSIRRIQQ |  |  | 2

— publication PMC3516508 (PLoS ONE, 2012)
